Data published in PMC6098157.

Target: TIR1 (transport inhibitor response 1), codon-optimized rice TIR1 (rice)

B1: mAID^K→R-vhhGFP4^K→R (lysine-less mAID-nanobody) (VHH)
chain: ACPRDPARPPARAQVVGWPPVRSYRRNVMVSCQRSSGGPEAAAFVRVSMDGAPYLRRIDLRMYRMDQVQLVESGGALVQPGGSLRLSCAASGFPVNRYSMRWYRQAPGREREWVAGMSSAGDRSSYEDSVRGRFTISRDDARNTVYLQMNSLRPEDTAVYYCNVNVGFEYWGQGTQVTVSS
  GFP-PCNA left at 22 hpf in zebrafish retinal neuroepithelium cells expressing TIR1 and mAID-nanobody, with 0.5 mM IAA as the bridging auxin (% of original GFP-PCNA levels): < 20
  GFP-PCNA left at 22 hpf in zebrafish retinal neuroepithelium cells expressing TIR1 and mAID-nanobody, with 0.5 mM NAA as the bridging auxin (% of original GFP-PCNA levels): 12
